Measurements reported in US20250352662A1 (MERSANA THERAPEUTICS, published 2025).
Several values for one entry are separate records, joined by “and”; a condition that tells them apart may be missing. Equal values may be shown once.

T1: human NaPi2b on OVCAR3 human ovarian cancer cells (human, UniProt O95436 1-690)
T1 construct: also called SLC34A2; sodium-dependent phosphate transport protein 2B
T1 sequence: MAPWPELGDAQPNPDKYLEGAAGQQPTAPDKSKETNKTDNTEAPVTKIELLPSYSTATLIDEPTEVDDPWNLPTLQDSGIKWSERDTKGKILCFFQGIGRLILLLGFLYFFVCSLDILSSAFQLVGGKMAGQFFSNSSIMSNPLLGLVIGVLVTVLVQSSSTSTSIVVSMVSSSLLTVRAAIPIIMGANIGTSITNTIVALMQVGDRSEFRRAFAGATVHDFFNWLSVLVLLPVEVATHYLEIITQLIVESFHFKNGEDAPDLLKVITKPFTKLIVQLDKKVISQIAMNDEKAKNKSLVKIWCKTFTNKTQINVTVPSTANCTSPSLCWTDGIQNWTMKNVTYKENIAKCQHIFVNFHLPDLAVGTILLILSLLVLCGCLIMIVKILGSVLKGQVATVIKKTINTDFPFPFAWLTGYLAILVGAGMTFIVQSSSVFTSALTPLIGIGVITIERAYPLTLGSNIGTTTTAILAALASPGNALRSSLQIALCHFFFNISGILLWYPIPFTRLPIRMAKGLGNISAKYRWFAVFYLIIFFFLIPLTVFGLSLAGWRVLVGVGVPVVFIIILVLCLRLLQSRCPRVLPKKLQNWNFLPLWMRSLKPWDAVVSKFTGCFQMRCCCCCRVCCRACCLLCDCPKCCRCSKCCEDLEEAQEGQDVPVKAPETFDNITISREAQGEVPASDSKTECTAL


Target: T1, human NaPi2b on OVCAR3 human ovarian …
Experiment: flow cytometry on OVCAR3 cells, 1 h on ice, goat anti-human IgG-Alexa-647 detection, MFI; mean EC50
Description: OVCAR3 cells were grown to ˜80-95% confluency in RPMI 1640 medium supplemented with FBS (20%) and penicillin/streptomycin (1%). Cells were harvested and added to wells of a 96-well U bottom plate (50,000/well). The cells were pelleted (300×g, 5 minutes) and resuspended in solutions of test articles as indicated in Table 18 at concentrations ranging between 0.01 nM and 300 nM and incubated on ice for 1 hour.

| Binder | EC50 |
| --- | --- |
| XMT-1535 Conjugate 8b-3, DAR 6.4 (antibody, human IgG1, kappa, STING agonist linker-drug on cysteine thiols of the reduced antibody, positions not given; STING agonist linker-drug (Compound 7) joined through maleimide to cysteine thiols of the TCEP-reduced antibody, positions not given; DAR 6.4 per antibody) heavy: not shown light: DIQMTQSPSSLSASVGDRVTITCSASQDIGNFLNWYQQKPGKTVKVLIYYTSSLYSGVPSRFSGSGSGTDYTLTISSLQPEDFATYYCQQYSKLPLTFGQGTKLELKRRTVAAPSVFIFPPSDEQLKSGTASVVCLLNNFYPREAKVQWKVDNALQSGNSQESVTEQDSKDSTYSLSSTLTLSKADYEKHKVYACEVTHQGLSSPVTKSFNRGEC | 8.13 nM |
| XMT-1535 (antibody, human IgG1, kappa, Unconjugated antibody, IgG1; also called anti-NaPi2b antibody; NaPi2b mAb) heavy: not shown light: DIQMTQSPSSLSASVGDRVTITCSASQDIGNFLNWYQQKPGKTVKVLIYYTSSLYSGVPSRFSGSGSGTDYTLTISSLQPEDFATYYCQQYSKLPLTFGQGTKLELKRRTVAAPSVFIFPPSDEQLKSGTASVVCLLNNFYPREAKVQWKVDNALQSGNSQESVTEQDSKDSTYSLSSTLTLSKADYEKHKVYACEVTHQGLSSPVTKSFNRGEC | 4.29 nM and 3.74 nM |
| XMT-1535 mIgG2a (antibody, V domains shown, Unconjugated; variable domains are those of XMT-1535 by name only; also called XMT-1535 hIgG1-mIgG2a) VH: QVQLVQSGAEVVKPGASVKMSCKASGYTFTGYNIHWVKQAPGQGLEWIGAIYPGNGDTSYKQKFRGRATLTADTSTSTVYMELSSLRSEDSAVYYCARGETARATFAYWGQGTLVTVSSG VL: DIQMTQSPSSLSASVGDRVTITCSASQDIGNFLNWYQQKPGKTVKVLIYYTSSLYSGVPSRFSGSGSGTDYTLTISSLQPEDFATYYCQQYSKLPLTFGQGTKLELKR | 4.13 nM |
| XMT-1535 mIgG2a Conjugate 32d, DAR 8.8 (antibody, V domains shown, elsewhere called chimeric hIgG1-mIgG2a; the variable domains are those of XMT-1535 by name only) VH: QVQLVQSGAEVVKPGASVKMSCKASGYTFTGYNIHWVKQAPGQGLEWIGAIYPGNGDTSYKQKFRGRATLTADTSTSTVYMELSSLRSEDSAVYYCARGETARATFAYWGQGTLVTVSSG VL: DIQMTQSPSSLSASVGDRVTITCSASQDIGNFLNWYQQKPGKTVKVLIYYTSSLYSGVPSRFSGSGSGTDYTLTISSLQPEDFATYYCQQYSKLPLTFGQGTKLELKR | 2.99 nM |
